Laboratory results published in patent US20180155451A1 (published 2018).

T1: FcγRIIa H (human, UniProt P12318 34-217)
T1 construct: extracellular domain; Soluble His-tagged extracellular domain expressed in FreeStyle293 cells; also called FcγRIIa type H; FcgRIIa H; not shown: His tag attached to the C terminus
T1 sequence (looked up): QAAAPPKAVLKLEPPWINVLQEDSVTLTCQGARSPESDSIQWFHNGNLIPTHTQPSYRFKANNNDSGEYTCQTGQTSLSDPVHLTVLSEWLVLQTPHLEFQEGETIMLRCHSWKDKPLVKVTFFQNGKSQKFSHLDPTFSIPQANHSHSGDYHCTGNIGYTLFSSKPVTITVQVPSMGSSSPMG

T2: FcγRIIb (human, UniProt P31994 43-217)
T2 construct: extracellular domain; Soluble His-tagged extracellular domain expressed in FreeStyle293 cells; also called FcgRIIb; 2b; not shown: His tag attached to the C terminus
T2 sequence (looked up): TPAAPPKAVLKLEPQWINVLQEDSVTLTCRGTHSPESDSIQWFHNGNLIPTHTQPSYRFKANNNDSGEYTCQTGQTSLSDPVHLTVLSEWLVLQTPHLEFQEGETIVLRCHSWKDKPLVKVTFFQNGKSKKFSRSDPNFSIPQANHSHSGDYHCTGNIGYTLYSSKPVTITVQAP

T3: FcγRIIb extracellular domain with C-terminal His tag (human, UniProt P31994 43-217)
T3 construct: extracellular domain; also called FcgRIIb; 2b; not shown: His tag at the C terminus
T3 sequence (looked up): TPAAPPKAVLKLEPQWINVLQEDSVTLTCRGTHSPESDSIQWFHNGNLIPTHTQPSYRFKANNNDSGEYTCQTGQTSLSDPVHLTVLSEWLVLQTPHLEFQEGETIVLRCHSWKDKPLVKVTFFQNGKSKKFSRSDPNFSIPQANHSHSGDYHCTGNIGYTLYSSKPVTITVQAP


Key:
FcγRIIa H [1] = target: T1, FcγRIIa H; test: SPR (Biacore), captured antibody, FcγR analyte; relative to GpH7-A5/GpH7-B3/GpL16-k0 = 100
Procedure: (§1) Analysis of interaction between objective antibody and the FcγR was carried out using Biacore T100 (GE Healthcare). HBS-EP+ (GE Healthcare) was used as the running buffer, and the measurement temperature was set to 25° C. Chips produced by immobilizing the antigen peptide by the amine coupling method to a Series S Sencor Chip CM5 (GE Healthcare), or alternatively, chips produced by allowing preliminarily biotinylated antigen peptides to interact with and immobilize onto a Series S Sensor Chip SA (certified) (GE Healthcare) were used. Antibodies of interest were captured onto an antigen peptide-immobilized chip, and allowed to interact to each FcγR diluted with running buffer. To regenerate and repeatedly use the chip, the antibodies captured on the chip were washed off by reacting 10 mM glycine-HCl, pH 1.5.
(§2) The FcγR-binding activity of each antibody was assessed primarily using as an indicator the FcγR-binding activity and dissociation constant for FcγR.

FcγRIIb = target: T2, FcγRIIb; test: as above
Procedure: as §1, §2

FcγRIIa H [2] = target: T1, FcγRIIa H; test: SPR (Biacore); He/Con_2aH divided by He/Con_2b (FcγRIIb) of the same antibody
Procedure: The heterodimerized antibodies He Abs in which one of the H chains was introduced with an alteration were assayed for their binding activities to each activating FcγR and inhibitory FcγR according to the method described in Example 4. […] The activating FcγRs in FIGS. 26, 27, 28, and 29 are FcγRIa, FcγRIIa (R), FcγRIIa (H), and FcγRIIIa, respectively.
as §1

[3] = target: T4, FcγRIIIa extracellular domain with C-terminal His tag (human, UniProt P08637 17-208); test: SPR (Biacore), antibody captured via antigen peptide, FcγR as analyte; binding relative to GpH7-A5/GpH7-B3/GpL16-k0 = 100
T4 construct: extracellular domain; also called FcgRIIIa; 3a; not shown: His tag at the C terminus
T4 sequence (P08637 17-208): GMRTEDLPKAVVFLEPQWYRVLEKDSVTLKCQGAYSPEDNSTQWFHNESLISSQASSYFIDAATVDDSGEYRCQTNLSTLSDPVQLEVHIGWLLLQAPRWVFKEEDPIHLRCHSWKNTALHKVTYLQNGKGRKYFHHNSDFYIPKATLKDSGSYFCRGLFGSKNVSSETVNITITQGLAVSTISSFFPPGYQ

[4] = target: T3, FcγRIIb extracellular domain with …; test: as above

Row | He/Con_2aH (FcγRIIa H [1]) | He/Con_2b (FcγRIIb) | He_2aH/2b (FcγRIIa H [2]) | He/Con_3a [3] | He/Con_2b [4] | Binder
1 | 77.4 relative (control = 100) | 114 relative (control = 100) | 0.68 ratio |  |  | GpH7-A5/GpH7-B3 variant P331_07I/GpL16-k0 (antibody, human IgG1, kappa, Heterodimerized anti-glypican-3 IgG1; mutation in the GpH7-B3 H chain only; also called He Ab) heavy 1: not shown heavy 2: not shown light: DIVMTQSPLSLPVTPGEPASISCQASESLVHSNRNTYLHWYLQKPGQSPQLLIYKVSNRFSGVPDRFSGSGSGTDFTLKISRVEAEDVGVYYCSQNTHVPPTFGQGTKVEIERTVAAPSVFIFPPSDEQLKSGTASVVCLLNNFYPREAKVQWKVDNALQSGNSQESVTEQDSKDSTYSLSSTLTLSKADYEKHKVYACEVTHQGLSSPVTKSFNRGEC
2 | 82.8 relative (control = 100) | 111 relative (control = 100) | 0.75 ratio |  |  | GpH7-A5/GpH7-B3 variant P331_20W/GpL16-k0 (antibody, human IgG1, kappa, Heterodimerized anti-glypican-3 IgG1; mutation in the GpH7-B3 H chain only; also called He Ab) heavy 1: not shown heavy 2: not shown light: DIVMTQSPLSLPVTPGEPASISCQASESLVHSNRNTYLHWYLQKPGQSPQLLIYKVSNRFSGVPDRFSGSGSGTDFTLKISRVEAEDVGVYYCSQNTHVPPTFGQGTKVEIERTVAAPSVFIFPPSDEQLKSGTASVVCLLNNFYPREAKVQWKVDNALQSGNSQESVTEQDSKDSTYSLSSTLTLSKADYEKHKVYACEVTHQGLSSPVTKSFNRGEC
3 | 87.1 relative (control = 100) | 116 relative (control = 100) | 0.75 ratio |  |  | GpH7-A5/GpH7-B3 variant P331_10E/GpL16-k0 (antibody, human IgG1, kappa, Heterodimerized anti-glypican-3 IgG1; mutation in the GpH7-B3 H chain only; also called He Ab) heavy 1: not shown heavy 2: not shown light: DIVMTQSPLSLPVTPGEPASISCQASESLVHSNRNTYLHWYLQKPGQSPQLLIYKVSNRFSGVPDRFSGSGSGTDFTLKISRVEAEDVGVYYCSQNTHVPPTFGQGTKVEIERTVAAPSVFIFPPSDEQLKSGTASVVCLLNNFYPREAKVQWKVDNALQSGNSQESVTEQDSKDSTYSLSSTLTLSKADYEKHKVYACEVTHQGLSSPVTKSFNRGEC
4 | 86 relative (control = 100) | 114 relative (control = 100) | 0.75 ratio |  |  | GpH7-A5/GpH7-B3 variant P331_15Y/GpL16-k0 (antibody, human IgG1, kappa, Heterodimerized anti-glypican-3 IgG1; mutation in the GpH7-B3 H chain only; also called He Ab) heavy 1: not shown heavy 2: not shown light: DIVMTQSPLSLPVTPGEPASISCQASESLVHSNRNTYLHWYLQKPGQSPQLLIYKVSNRFSGVPDRFSGSGSGTDFTLKISRVEAEDVGVYYCSQNTHVPPTFGQGTKVEIERTVAAPSVFIFPPSDEQLKSGTASVVCLLNNFYPREAKVQWKVDNALQSGNSQESVTEQDSKDSTYSLSSTLTLSKADYEKHKVYACEVTHQGLSSPVTKSFNRGEC
5 | 84.7 relative (control = 100) | 110 relative (control = 100) | 0.77 ratio |  |  | GpH7-A5/GpH7-B3 variant P331_04F/GpL16-k0 (antibody, human IgG1, kappa, Heterodimerized anti-glypican-3 IgG1; mutation in the GpH7-B3 H chain only; also called He Ab) heavy 1: not shown heavy 2: not shown light: DIVMTQSPLSLPVTPGEPASISCQASESLVHSNRNTYLHWYLQKPGQSPQLLIYKVSNRFSGVPDRFSGSGSGTDFTLKISRVEAEDVGVYYCSQNTHVPPTFGQGTKVEIERTVAAPSVFIFPPSDEQLKSGTASVVCLLNNFYPREAKVQWKVDNALQSGNSQESVTEQDSKDSTYSLSSTLTLSKADYEKHKVYACEVTHQGLSSPVTKSFNRGEC

The next lines start with the binder.

Row | Binder | He/Con_2aH (FcγRIIa H [1]) | He/Con_2b (FcγRIIb) | He_2aH/2b (FcγRIIa H [2]) | He/Con_3a [3] | He/Con_2b [4]
6 | GpH7-A5/GpH7-B3 variant N325_16H/GpL16-k0 (antibody, human IgG1, kappa, Heterodimerized anti-glypican-3 IgG1; mutation in the GpH7-B3 H chain only; also called He Ab) heavy 1: not shown heavy 2: not shown light: DIVMTQSPLSLPVTPGEPASISCQASESLVHSNRNTYLHWYLQKPGQSPQLLIYKVSNRFSGVPDRFSGSGSGTDFTLKISRVEAEDVGVYYCSQNTHVPPTFGQGTKVEIERTVAAPSVFIFPPSDEQLKSGTASVVCLLNNFYPREAKVQWKVDNALQSGNSQESVTEQDSKDSTYSLSSTLTLSKADYEKHKVYACEVTHQGLSSPVTKSFNRGEC | 48 relative (control = 100) | 70.1 relative (control = 100) | 0.68 ratio |  | 
7 | GpH7-A5/GpH7-B3 variant N325_14T/GpL16-k0 (antibody, human IgG1, kappa, Heterodimerized anti-glypican-3 IgG1; mutation in the GpH7-B3 H chain only; also called He Ab) heavy 1: not shown heavy 2: not shown light: DIVMTQSPLSLPVTPGEPASISCQASESLVHSNRNTYLHWYLQKPGQSPQLLIYKVSNRFSGVPDRFSGSGSGTDFTLKISRVEAEDVGVYYCSQNTHVPPTFGQGTKVEIERTVAAPSVFIFPPSDEQLKSGTASVVCLLNNFYPREAKVQWKVDNALQSGNSQESVTEQDSKDSTYSLSSTLTLSKADYEKHKVYACEVTHQGLSSPVTKSFNRGEC | 62.7 relative (control = 100) | 91.6 relative (control = 100) | 0.68 ratio |  | 
8 | GpH7-A5/GpH7-B3 variant I336_03V/GpL16-k0 (antibody, human IgG1, kappa, He Ab: the mutation stands only in the GpH7-B3-derived H chain; also called He Ab I336V) heavy 1: not shown heavy 2: not shown light: DIVMTQSPLSLPVTPGEPASISCQASESLVHSNRNTYLHWYLQKPGQSPQLLIYKVSNRFSGVPDRFSGSGSGTDFTLKISRVEAEDVGVYYCSQNTHVPPTFGQGTKVEIERTVAAPSVFIFPPSDEQLKSGTASVVCLLNNFYPREAKVQWKVDNALQSGNSQESVTEQDSKDSTYSLSSTLTLSKADYEKHKVYACEVTHQGLSSPVTKSFNRGEC |  |  |  | 112 relative (control = 100) | 90.3 relative (control = 100)
